B1: DNAJB12-FL tagged with mOrange (natural protein)
chain: MESNKDEAERCISIALKAIQSNQPDRALRFLEKAQRLYPTPRVRALIESLNQKPQTAGDQPPPTDTTHATHRKAGGTDAPSANGEAGGESTKGYTAEQVAAVKRVKQCKDYYEILGVSRGASDEDLKKAYRRLALKFHPDKNHAPGATEAFKAIGTAYAVLSNPEKRKQYDQFGDDKSQAARHGHGHGDFHRGFEADISPEDLFNMFFGGGFPSSNVHVYSNGRMRYTYQQRQDRRDNQGDGGLGVFVQLMPILILILVSALSQLMVSSPPYSLSPRPSVGHIHRRVTDHLGVVYYVGDTFSEEYTGSSLKTVERNVEDDYIANLRNNCWKEKQQKEGLLYRARYFGDTDMYHRAQKMGTPSCSRLSEVQASLHG

How the values were obtained:
[1] = molecular target: DNAJB14-ΔDUF tagged with FLAG (human); assay: co-IP
Chain of DNAJB14-ΔDUF tagged with FLAG (human) (Q8TBM8 whole entry, stated change not applied): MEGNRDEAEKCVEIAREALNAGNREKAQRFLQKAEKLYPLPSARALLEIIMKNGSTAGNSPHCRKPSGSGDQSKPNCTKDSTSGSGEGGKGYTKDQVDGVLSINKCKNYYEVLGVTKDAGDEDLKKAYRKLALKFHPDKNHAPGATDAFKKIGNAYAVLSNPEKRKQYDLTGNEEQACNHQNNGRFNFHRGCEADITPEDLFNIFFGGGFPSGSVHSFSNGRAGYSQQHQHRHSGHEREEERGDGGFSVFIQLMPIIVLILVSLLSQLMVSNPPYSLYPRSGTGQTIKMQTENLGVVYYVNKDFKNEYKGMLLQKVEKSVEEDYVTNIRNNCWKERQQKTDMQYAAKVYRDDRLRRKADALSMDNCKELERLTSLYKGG

[2] = molecular target: DNAJB14-ΔDUF tagged with FLAG (human); assay: co-IP; remark: listed apart in the source

Molecule | interaction left relative to DNAJB14-FL (co-IP densitometry) [1] [%] | fold lower than DNAJB14-FL (co-IP densitometry) [2] [fold lower]
HSP70 (from UniProt P0DMV8 1-641) (natural protein) | 50 | –
B1 | – | 3

From doi:10.1101/2021.04.08.438944
